The supplement of paper PMC9112550, “Optimization of the antimicrobial peptide Bac7 by deep mutational scanning” (BMC Biology, 2022)

Tested on: Escherichia coli TOP10
Assay: shrunken log2 fold change of peptide-encoding DNA abundance (4.5 h post-induction vs induction); higher = less antimicrobial activity (less host growth inhibition)
Conditions: time post-induction: 4.5 h; library: site-saturation at positions 5, 18, 19, 20
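Further: peptides expressed intracellularly from a pBAD plasmid library in pooled LB shake-flask culture, induced with 0.3% L-arabinose, DNA abundance read by NGS, three biological replicates, DESeq2 with apeglm shrinkage.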

Row | Sequence | shrunken log2 fold change
1 | RRIRHRPPRLPRPRPRPTIVPRP | -0.292
2 | RRIRWRPPRLPRPRPRPYQAPRP | -0.0526
3 | RRIRFRPPRLPRPRPRPCDAPRP | -0.312
4 | RRIRGRPPRLPRPRPRPKHAPRP | 1.21
5 | RRIRCRPPRLPRPRPRPQYSPRP | -0.273
6 | RRIRLRPPRLPRPRPRPFEHPRP | 0.0204
7 | RRIRERPPRLPRPRPRPWKKPRP | -0.0959
8 | RRIRGRPPRLPRPRPRPDQNPRP | 0.00612
9 | RRIRQRPPRLPRPRPRPLLNPRP | -0.29
10 | RRIRNRPPRLPRPRPRPSPMPRP | -0.0245
11 | RRIRWRPPRLPRPRPRPMNLPRP | -0.063
12 | RRIRHRPPRLPRPRPRPCLCPRP | -0.268
13 | RRIRVRPPRLPRPRPRPIAMPRP | -0.0565
14 | RRIRRRPPRLPRPRPRPVEIPRP | 0.048
15 | RRIRQRPPRLPRPRPRPMLFPRP | -0.0627
16 | RRIRQRPPRLPRPRPRPDDEPRP | -0.0396
17 | RRIRYRPPRLPRPRPRPCIRPRP | -0.023
18 | RRIRHRPPRLPRPRPRPKREPRP | -0.0483
19 | RRIRVRPPRLPRPRPRPQLHPRP | -0.147
20 | RRIRGRPPRLPRPRPRPSKTPRP | 0.558
21 | RRIRARPPRLPRPRPRPCPRPRP | 0.898
22 | RRIRCRPPRLPRPRPRPGWHPRP | 0.269
23 | RRIRWRPPRLPRPRPRPLEEPRP | 1.06

Row | Sequence | shrunken log2 fold change
24 | RRIRARPPRLPRPRPRPCKLPRP | -0.693
25 | RRIRSRPPRLPRPRPRPREMPRP | 0.159
26 | RRIRCRPPRLPRPRPRPWRQPRP | -0.167
27 | RRIRMRPPRLPRPRPRPHAPPRP | 0.469
28 | RRIRSRPPRLPRPRPRPWWRPRP | -0.0239
29 | RRIRDRPPRLPRPRPRPWHYPRP | -0.225
30 | RRIRFRPPRLPRPRPRPDNAPRP | -0.167
31 | RRIRHRPPRLPRPRPRPHFNPRP | -0.42
32 | RRIRIRPPRLPRPRPRPARIPRP | -0.0826
33 | RRIRHRPPRLPRPRPRPRVDPRP | 0.0681
34 | RRIRGRPPRLPRPRPRPAIHPRP | 0.164
35 | RRIRARPPRLPRPRPRPLSLPRP | -0.0486
36 | RRIRQRPPRLPRPRPRPYNTPRP | -0.325
37 | RRIRKRPPRLPRPRPRPMTNPRP | 0.184
38 | RRIRARPPRLPRPRPRPIWCPRP | 0.00499
39 | RRIRLRPPRLPRPRPRPPSRPRP | 0.175
40 | RRIRSRPPRLPRPRPRPSDFPRP | -0.536
41 | RRIRKRPPRLPRPRPRPMHTPRP | 0.192
42 | RRIRWRPPRLPRPRPRPQGGPRP | -0.0626
43 | RRIRLRPPRLPRPRPRPGEQPRP | 0.0657
44 | RRIRTRPPRLPRPRPRPYYAPRP | -0.489
45 | RRIRLRPPRLPRPRPRPRALPRP | 2.21
46 | RRIRCRPPRLPRPRPRPHWSPRP | -0.395

Row | Sequence | shrunken log2 fold change
47 | RRIRKRPPRLPRPRPRPYMTPRP | -0.0252
48 | RRIRIRPPRLPRPRPRPRIMPRP | -0.537
49 | RRIRRRPPRLPRPRPRPEFRPRP | 0.179
50 | RRIRERPPRLPRPRPRPRYQPRP | -0.227
51 | RRIRIRPPRLPRPRPRPRWRPRP | 0.267
52 | RRIRRRPPRLPRPRPRPDDTPRP | 0.139
53 | RRIRWRPPRLPRPRPRPFSMPRP | -0.0921
54 | RRIRMRPPRLPRPRPRPRYWPRP | -0.14
55 | RRIRNRPPRLPRPRPRPNYWPRP | -0.694
56 | RRIRLRPPRLPRPRPRPVWIPRP | 0.0148
57 | RRIRQRPPRLPRPRPRPTDKPRP | -0.112
58 | RRIRIRPPRLPRPRPRPKGVPRP | -0.00153
59 | RRIRPRPPRLPRPRPRPRWTPRP | 0.399
60 | RRIRARPPRLPRPRPRPYPAPRP | -0.146
61 | RRIRNRPPRLPRPRPRPCTDPRP | 0.233
62 | RRIRHRPPRLPRPRPRPFVKPRP | -1.48
63 | RRIRKRPPRLPRPRPRPIVMPRP | 0.0102
64 | RRIRIRPPRLPRPRPRPLCGPRP | -0.319
65 | RRIRLRPPRLPRPRPRPVEVPRP | -0.0272
66 | RRIRHRPPRLPRPRPRPSSKPRP | -0.0453
67 | RRIRDRPPRLPRPRPRPPWGPRP | 0.344
68 | RRIRTRPPRLPRPRPRPAMNPRP | -0.405
69 | RRIRYRPPRLPRPRPRPLPVPRP | -0.142

Row | Sequence | shrunken log2 fold change
70 | RRIRRRPPRLPRPRPRPHGTPRP | 0.00291
71 | RRIRSRPPRLPRPRPRPTEKPRP | 0.0802
72 | RRIRIRPPRLPRPRPRPMMFPRP | -0.0225
73 | RRIRFRPPRLPRPRPRPMAEPRP | 0.0579
74 | RRIRCRPPRLPRPRPRPAHHPRP | -0.222
75 | RRIRARPPRLPRPRPRPHYGPRP | 0.0153
76 | RRIRTRPPRLPRPRPRPHPQPRP | -0.116
77 | RRIRHRPPRLPRPRPRPILYPRP | -0.123
78 | RRIRHRPPRLPRPRPRPPQFPRP | 0.0105
79 | RRIRNRPPRLPRPRPRPQNYPRP | -0.846
80 | RRIRDRPPRLPRPRPRPASYPRP | -0.0767
81 | RRIRNRPPRLPRPRPRPLCDPRP | 0.0696
82 | RRIRMRPPRLPRPRPRPIAGPRP | -0.0293
83 | RRIRSRPPRLPRPRPRPVMKPRP | -0.45
84 | RRIRTRPPRLPRPRPRPFVLPRP | -0.296
85 | RRIRWRPPRLPRPRPRPKLFPRP | 0.589
86 | RRIRSRPPRLPRPRPRPNDVPRP | -0.134
87 | RRIRFRPPRLPRPRPRPLKLPRP | -0.147
88 | RRIRSRPPRLPRPRPRPDAFPRP | 0.387
89 | RRIRVRPPRLPRPRPRPHILPRP | -0.234
90 | RRIRSRPPRLPRPRPRPMNVPRP | -0.0106
91 | RRIRWRPPRLPRPRPRPHYHPRP | -0.506
